In patent US20090149389A1 (PURDUE RESEARCH FOUNDATION, published 2009):

Columns and labels:
Assay in all cases: cell-based or functional assay
[1] = target: BTK (h) (human (h), UniProt Q06187 1-659)
[2] = target: TrkA (h) (human (h), UniProt P04629 441-796, limits assumed)
[3] = target: PKB β (h) (human (h), UniProt P31751 1-481, limits assumed)
[4] = target: T1, DYRK2 (h) (human (h), UniProt Q92630 1-601, limits assumed)
T1 sequence (looked up): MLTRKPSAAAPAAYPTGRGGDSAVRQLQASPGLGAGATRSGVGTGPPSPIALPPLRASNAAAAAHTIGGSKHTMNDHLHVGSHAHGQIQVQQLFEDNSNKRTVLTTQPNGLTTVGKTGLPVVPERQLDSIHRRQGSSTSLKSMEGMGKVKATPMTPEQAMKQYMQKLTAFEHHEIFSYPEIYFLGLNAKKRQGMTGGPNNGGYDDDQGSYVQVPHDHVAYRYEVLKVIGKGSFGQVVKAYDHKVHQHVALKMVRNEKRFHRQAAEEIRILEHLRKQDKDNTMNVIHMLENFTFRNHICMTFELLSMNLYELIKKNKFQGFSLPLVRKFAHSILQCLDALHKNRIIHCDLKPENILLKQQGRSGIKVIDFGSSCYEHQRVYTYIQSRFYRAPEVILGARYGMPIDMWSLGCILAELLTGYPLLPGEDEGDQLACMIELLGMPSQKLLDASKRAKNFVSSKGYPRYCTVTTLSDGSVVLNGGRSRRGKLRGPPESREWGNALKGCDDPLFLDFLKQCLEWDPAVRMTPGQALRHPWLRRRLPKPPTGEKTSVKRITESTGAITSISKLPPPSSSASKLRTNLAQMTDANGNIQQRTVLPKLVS

[5] = target: CK2 (h) (human (h), UniProt P68400 1-391)
[6] = target: L1MK1 (h) (human (h), UniProt P53667 285-638, limits assumed)
[7] = target: T2, PKG1β (h) (human (h), UniProt Q13976-2 1-686)
T2 sequence (looked up): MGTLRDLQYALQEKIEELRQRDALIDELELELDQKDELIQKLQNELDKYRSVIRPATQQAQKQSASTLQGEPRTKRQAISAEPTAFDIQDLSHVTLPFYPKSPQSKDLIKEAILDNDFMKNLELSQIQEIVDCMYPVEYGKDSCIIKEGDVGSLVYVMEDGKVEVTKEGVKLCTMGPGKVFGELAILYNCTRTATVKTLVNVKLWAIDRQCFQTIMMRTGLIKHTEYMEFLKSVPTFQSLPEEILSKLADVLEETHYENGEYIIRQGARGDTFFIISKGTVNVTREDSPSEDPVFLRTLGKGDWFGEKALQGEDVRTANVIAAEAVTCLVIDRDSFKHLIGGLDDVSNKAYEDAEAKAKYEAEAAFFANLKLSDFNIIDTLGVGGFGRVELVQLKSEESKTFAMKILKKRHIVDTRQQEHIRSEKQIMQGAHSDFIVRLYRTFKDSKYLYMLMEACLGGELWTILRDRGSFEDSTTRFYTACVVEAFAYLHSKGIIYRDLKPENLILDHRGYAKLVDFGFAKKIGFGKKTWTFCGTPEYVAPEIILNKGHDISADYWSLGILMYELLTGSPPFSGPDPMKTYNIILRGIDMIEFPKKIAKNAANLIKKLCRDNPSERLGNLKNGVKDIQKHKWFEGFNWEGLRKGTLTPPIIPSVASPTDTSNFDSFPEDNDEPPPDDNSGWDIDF

[8] = target: T3, CHK1 (h) (human (h), UniProt O14757 1-476)
T3 sequence (looked up): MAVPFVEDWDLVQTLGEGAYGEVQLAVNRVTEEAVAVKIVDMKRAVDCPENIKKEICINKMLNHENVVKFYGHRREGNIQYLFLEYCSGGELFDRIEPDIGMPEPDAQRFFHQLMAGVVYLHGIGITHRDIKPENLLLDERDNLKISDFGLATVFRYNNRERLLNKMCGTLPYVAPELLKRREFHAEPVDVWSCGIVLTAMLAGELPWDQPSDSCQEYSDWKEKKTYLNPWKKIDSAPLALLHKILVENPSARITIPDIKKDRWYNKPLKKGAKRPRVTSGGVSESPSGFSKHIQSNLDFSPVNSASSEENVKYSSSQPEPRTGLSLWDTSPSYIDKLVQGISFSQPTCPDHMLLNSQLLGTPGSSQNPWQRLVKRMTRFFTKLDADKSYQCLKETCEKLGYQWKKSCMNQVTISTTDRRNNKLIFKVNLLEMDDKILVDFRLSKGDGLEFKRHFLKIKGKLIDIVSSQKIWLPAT

[9] = target: T4, Aurora-A (h) (human (h), UniProt O14965 1-403)
T4 sequence (looked up): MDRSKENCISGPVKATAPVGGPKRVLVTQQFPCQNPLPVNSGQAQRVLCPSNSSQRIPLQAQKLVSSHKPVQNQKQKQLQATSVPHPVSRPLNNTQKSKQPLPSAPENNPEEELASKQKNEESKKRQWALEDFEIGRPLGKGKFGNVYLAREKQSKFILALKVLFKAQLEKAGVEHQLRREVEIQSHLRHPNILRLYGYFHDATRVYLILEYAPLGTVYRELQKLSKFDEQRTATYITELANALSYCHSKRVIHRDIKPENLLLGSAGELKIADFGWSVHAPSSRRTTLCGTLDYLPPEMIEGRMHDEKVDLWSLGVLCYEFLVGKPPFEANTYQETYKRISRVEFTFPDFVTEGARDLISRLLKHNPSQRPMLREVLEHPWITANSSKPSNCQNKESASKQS

[10] = target: MEKI (h) (human (h), UniProt Q02750 1-393)
[11] = target: Tie2 (h) (human (h), UniProt Q02763 771-1124, limits assumed)
[12] = target: KDR (tl) (UniProt P35968 790-1356, limits assumed)
[13] = target: FGFR1 (h) (human (h), UniProt P11362 456-765, limits assumed)
[14] = target: cKit (h) (human (h), UniProt P10721 544-976, limits assumed)
Sequence of cKit (h) (P10721 544-976 limits assumed): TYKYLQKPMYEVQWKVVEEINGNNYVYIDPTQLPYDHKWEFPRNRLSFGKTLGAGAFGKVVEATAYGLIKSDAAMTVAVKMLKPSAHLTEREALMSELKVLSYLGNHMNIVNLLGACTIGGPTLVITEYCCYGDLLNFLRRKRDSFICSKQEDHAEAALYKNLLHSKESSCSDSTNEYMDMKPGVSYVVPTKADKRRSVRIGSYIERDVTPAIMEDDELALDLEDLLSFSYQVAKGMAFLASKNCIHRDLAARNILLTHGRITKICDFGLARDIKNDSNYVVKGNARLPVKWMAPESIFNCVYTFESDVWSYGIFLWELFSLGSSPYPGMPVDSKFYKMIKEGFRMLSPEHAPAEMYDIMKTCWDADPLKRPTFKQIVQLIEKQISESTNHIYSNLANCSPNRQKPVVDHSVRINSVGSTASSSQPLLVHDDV

Sequence of CK2 (h) (P68400 whole entry): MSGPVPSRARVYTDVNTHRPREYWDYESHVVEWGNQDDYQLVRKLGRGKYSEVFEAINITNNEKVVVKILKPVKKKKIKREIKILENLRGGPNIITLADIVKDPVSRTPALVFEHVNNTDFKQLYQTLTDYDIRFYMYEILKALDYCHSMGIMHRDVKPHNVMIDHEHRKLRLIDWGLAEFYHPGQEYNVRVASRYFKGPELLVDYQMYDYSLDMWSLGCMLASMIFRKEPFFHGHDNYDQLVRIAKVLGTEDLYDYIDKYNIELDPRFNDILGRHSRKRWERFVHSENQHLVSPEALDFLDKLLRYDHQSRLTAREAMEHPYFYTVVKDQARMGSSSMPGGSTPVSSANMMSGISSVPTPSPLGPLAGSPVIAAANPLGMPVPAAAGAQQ
Sequence of BTK (h) (Q06187 whole entry): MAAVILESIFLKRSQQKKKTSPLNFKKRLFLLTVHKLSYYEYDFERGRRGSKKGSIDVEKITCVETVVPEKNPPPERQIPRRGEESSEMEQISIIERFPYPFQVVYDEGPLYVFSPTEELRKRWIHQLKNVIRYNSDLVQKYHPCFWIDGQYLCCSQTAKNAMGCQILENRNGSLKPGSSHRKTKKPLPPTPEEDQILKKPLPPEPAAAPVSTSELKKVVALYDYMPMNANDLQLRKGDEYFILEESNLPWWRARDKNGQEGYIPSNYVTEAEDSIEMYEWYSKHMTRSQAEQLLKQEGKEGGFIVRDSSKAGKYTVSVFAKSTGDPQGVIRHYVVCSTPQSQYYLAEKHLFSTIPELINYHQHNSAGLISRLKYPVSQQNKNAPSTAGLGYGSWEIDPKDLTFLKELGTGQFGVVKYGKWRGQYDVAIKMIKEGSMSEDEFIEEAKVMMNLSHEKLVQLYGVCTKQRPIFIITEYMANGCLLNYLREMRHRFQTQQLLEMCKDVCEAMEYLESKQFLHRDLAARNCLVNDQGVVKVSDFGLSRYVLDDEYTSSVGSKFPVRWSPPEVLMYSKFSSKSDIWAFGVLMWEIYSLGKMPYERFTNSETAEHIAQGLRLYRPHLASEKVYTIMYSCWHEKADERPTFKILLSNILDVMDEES
Sequence of FGFR1 (h) (P11362 456-765 limits assumed): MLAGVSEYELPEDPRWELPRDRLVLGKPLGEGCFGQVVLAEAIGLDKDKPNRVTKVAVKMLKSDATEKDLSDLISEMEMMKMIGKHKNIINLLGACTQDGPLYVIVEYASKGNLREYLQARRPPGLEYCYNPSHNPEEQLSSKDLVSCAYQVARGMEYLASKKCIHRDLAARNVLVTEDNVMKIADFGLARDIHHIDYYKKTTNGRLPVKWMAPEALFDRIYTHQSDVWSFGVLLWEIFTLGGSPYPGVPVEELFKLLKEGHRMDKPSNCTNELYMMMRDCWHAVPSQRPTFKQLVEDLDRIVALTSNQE
Sequence of KDR (tl) (P35968 790-1356 limits assumed): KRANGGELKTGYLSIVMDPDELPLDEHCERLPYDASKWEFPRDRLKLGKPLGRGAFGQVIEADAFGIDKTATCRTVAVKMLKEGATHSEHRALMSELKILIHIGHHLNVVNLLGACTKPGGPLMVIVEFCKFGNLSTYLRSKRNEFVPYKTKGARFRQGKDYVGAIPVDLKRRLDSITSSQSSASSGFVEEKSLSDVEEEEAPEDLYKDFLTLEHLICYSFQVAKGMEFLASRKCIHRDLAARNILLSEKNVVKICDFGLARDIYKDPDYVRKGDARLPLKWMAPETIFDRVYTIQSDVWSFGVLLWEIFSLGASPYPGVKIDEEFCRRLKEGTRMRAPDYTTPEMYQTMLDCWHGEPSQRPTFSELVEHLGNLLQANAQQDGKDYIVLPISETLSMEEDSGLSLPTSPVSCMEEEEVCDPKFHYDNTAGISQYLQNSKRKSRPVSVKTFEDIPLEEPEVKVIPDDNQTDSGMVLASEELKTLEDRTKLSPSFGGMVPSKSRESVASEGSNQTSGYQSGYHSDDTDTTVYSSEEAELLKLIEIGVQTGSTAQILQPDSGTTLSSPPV
Sequence of TrkA (h) (P04629 441-796 limits assumed): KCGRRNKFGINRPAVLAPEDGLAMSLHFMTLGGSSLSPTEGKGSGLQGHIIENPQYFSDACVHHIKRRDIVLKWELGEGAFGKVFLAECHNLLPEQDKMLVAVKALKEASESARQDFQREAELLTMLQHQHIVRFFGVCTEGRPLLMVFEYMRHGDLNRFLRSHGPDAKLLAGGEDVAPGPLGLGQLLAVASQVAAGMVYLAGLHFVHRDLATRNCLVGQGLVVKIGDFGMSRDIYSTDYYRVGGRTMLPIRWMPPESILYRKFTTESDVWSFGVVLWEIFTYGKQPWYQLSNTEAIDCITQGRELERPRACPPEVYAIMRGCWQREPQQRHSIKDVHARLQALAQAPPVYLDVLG
Sequence of PKB β (h) (P31751 whole entry): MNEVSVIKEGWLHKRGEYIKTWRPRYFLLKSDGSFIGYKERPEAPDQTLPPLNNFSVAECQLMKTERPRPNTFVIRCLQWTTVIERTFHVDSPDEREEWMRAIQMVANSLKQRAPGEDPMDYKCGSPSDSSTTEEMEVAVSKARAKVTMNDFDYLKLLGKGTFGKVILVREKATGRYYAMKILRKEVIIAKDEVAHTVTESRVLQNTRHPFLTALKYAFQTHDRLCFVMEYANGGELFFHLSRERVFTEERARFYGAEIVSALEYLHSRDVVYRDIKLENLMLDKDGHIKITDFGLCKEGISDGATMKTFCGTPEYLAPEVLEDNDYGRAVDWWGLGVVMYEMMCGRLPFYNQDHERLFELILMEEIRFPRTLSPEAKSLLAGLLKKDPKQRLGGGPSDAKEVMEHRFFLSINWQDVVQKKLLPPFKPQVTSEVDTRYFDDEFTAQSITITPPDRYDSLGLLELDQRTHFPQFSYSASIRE
Sequence of Tie2 (h) (Q02763 771-1124 limits assumed): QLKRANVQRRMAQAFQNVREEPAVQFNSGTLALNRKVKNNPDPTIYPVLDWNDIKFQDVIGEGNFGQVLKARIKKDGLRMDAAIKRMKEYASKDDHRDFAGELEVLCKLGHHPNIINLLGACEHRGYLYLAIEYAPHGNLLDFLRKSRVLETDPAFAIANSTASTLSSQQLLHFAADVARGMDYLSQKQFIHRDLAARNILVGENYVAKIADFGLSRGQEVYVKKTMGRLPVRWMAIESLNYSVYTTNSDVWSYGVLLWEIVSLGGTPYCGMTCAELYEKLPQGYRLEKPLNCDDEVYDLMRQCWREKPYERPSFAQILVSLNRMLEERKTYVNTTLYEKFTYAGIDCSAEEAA
Sequence of L1MK1 (h) (P53667 285-638 limits assumed): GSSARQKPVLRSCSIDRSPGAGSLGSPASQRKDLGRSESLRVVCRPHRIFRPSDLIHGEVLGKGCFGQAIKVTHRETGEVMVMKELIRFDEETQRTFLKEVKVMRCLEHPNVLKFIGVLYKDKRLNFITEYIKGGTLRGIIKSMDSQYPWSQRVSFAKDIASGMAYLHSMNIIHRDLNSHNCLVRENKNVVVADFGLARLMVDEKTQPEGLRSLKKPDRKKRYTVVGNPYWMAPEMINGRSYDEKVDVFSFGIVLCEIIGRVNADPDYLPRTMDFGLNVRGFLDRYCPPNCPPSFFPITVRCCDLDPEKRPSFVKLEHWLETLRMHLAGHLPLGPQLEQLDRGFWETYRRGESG

WLRRIKAWLRRIKALNRQLGVAA
Profile-1 @ = 30 µm (kinase profiler assay) [1]: 5
Profile-1 @ = 30 µm (kinase profiler assay) [2]: 6
Profile-1 @ = 30 µm (kinase profiler assay) [3]: 18
Profile-1 @ = 30 µm (kinase profiler assay) [4]: 93
Profile-1 @ = 30 µm (kinase profiler assay) [5]: 114
Profile-1 @ = 30 µm (kinase profiler assay) [6]: 89
Profile-1 @ = 30 µm (kinase profiler assay) [7]: 15
Profile-1 @ = 30 µm (kinase profiler assay) [8]: 31
Profile-1 @ = 30 µm (kinase profiler assay) [9]: 46
Profile-1 @ = 30 µm (kinase profiler assay) [10]: 14
Profile-1 @ = 30 µm (kinase profiler assay) [11]: 17
Profile-1 @ = 30 µm (kinase profiler assay) [12]: 27
Profile-1 @ = 30 µm (kinase profiler assay) [13]: 27
Profile-1 @ = 30 µm (kinase profiler assay) [14]: 23
